Measured values from paper doi:10.1101/691972, “Structure of D. melanogaster ARC1 reveals a repurposed molecule with characteristics of retroviral Gag” (bioRxiv, 2019).
Positions count from the first letter of the chain named. In names and notes the source's numbering stands.

Key:
[1] = biological target: the molecule itself; test: crystal structure; Se-Met dARC1 CA; orthorhombic (P212121, 1.7 Å) and hexagonal (P6122, 2.3 Å) crystal forms, each with a dimer in the asymmetric unit; NaCl, HEPES pH 7.5 type conditions, 18 °C
[2] = biological target: the molecule itself; test: SEC-MALS; SEC-MALLS; 25-400 µM loaded in 100 µL on Superdex INCREASE 200 10/300 GL; 20 mM Tris-HCl, 150 mM NaCl, 0.5 mM TCEP, 3 mM NaN3, pH 8.0

B1: Se-Met substituted dARC1 CA (residues S39-N205) (domain or fragment, Drosophila melanogaster)
chain: SRGKGNFSACTHSFGGTRDHDVVEEFIGNIETYKDVEGISDENALKGISLLFYGMASTWWQGVRKEATTWKEAIALIREHFSPTKPAYQIYMEFFQNKQDDHDPIDTFVIQKRALLAQLPSGRHDEETELDLLFGLLNIKYRKHISRHSVHTFKDLLEQGRIIEHNNPLE
modifications: seleno-methionine substituted (incorporation confirmed by ESI-MS)
notes: dARC1, Drosophila melanogaster, Uniprot Q7K1U0, residues 39-205 (CA domain); the added N-terminal Met was processed; Protein of the two solved crystal forms (orthorhombic and hexagonal); also called SeMet dARC1 CA; seleno-methionine derivative protein; source: E. coli B834 (DE3) in seleno-methionine medium, purified by the identical procedure (Ni-NTA, carboxypeptidase A, SEC); not shown: His6, …
B1: binds [1].

B2: dARC1 CA (capsid domain region of D. melanogaster dARC1, residues S39-N205) (domain or fragment, Drosophila melanogaster)
chain: B1 chain
notes: dARC1, Drosophila melanogaster, Uniprot Q7K1U0, residues 39-205 (CA domain); the added N-terminal Met was processed (confirmed by ESI-MS); Native (non-SeMet) protein used for SEC-MALLS and AUC; also called dARC CA; dARC1 CA (S39-N205); source: E. coli BL21 (DE3), purified (Ni-NTA, carboxypeptidase A digestion of the His-tag, Superdex 75 SEC); not shown: His6, C-terminal, cleaved
In the case of B2, the “stoichiometry N” value [2] is reported as 2.

B3: dARC1 CA (F133A) (domain or fragment, Drosophila melanogaster)
chain: B1 chain with F95A
notes: dARC1, Drosophila melanogaster, Uniprot Q7K1U0, residues 39-205 (CA domain) with F133A; also called F133A mutation; source: E. coli BL21 (DE3), purified
B3: binds [2].
